Here are results for one substance from article PMC8972253.

The target in the experiment is HER2 receptor (human (endogenous in SKBR3)) (UniProt P04626). In words: BLI.

Thiomab Tras-LC-V205C came in with a Kd of 1 nM. In other words, the single-digit nanomolar range.
